Entries after “also recorded” stand apart in the source; their conditions may differ. Where two headings read alike, the source gives them in different places.
How the values were obtained:
SauCas9 = target: T1, SauCas9 (Staphylococcus aureus, UniProt J7RUA5); test: HT FRET-based Cas9 cleavage activity assay, SauCas9; type: biochemical, S. aureus
T1 construct: made in house; host or cells: E. coli BL21(star)DE3
T1 sequence (J7RUA5 whole entry, looked up): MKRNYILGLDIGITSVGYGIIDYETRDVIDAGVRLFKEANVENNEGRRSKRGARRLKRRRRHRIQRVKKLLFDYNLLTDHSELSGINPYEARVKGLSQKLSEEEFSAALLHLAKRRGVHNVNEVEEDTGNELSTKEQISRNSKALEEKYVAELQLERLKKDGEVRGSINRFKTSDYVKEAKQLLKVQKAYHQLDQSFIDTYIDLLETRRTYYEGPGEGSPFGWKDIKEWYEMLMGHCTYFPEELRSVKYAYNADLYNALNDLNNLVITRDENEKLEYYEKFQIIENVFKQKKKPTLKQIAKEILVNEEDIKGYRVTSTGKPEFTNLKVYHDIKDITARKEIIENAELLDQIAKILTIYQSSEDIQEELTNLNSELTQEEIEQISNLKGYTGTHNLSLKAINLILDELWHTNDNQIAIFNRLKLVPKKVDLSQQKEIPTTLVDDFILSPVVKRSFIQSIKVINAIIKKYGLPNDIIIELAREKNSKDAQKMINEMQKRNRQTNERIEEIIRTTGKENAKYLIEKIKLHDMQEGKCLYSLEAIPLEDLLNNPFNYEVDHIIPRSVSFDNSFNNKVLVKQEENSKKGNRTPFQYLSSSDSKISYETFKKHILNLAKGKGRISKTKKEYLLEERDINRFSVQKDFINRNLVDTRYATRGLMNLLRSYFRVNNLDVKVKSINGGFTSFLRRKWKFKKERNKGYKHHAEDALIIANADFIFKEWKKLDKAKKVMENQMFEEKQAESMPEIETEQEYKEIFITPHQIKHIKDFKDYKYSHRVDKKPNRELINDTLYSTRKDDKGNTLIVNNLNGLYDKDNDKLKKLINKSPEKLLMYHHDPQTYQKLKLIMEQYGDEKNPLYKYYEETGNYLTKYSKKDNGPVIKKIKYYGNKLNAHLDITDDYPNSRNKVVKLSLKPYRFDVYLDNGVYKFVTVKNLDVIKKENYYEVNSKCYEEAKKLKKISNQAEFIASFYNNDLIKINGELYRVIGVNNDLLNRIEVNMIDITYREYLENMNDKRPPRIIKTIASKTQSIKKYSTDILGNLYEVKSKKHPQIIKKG
Description: To evaluate the ability of identified peptides to inhibit other Cas9 variants, SauCas9 and CjeCas9 cleavage assays were used to quantitatively measure changes in activity. […] The inhibition was measured as relative fluorescent value to Cas9 without peptides (% activity) of CjeCas9 (Top), SauCas9 (middle), SpyCas9 (bottom) by FRET assay with the indicated concentration of peptides. Data are the average ±SD of eleven replicate wells from three technical replicates.
(§1) For the 11 original peptides reactions (10 μL) were set up in Cas9 reaction buffer [20 mM Tris-HCl, pH 7.5, 100 mM NaCl, 5 mM MgCl2, 0.1 mM EDTA] containing 50 nM annealed DNA substrate, 1.5 μM sgRNA, and 0.5 μM Cas9 in the wells of a black low volume 384-well plate. The reactions were incubated for 1 hour at ambient temperature with the indicated concentration of peptide; then, 10 μL, of 8 M Guanidine-HCl was added to quench the reaction. The plates were covered with an aluminum seal and incubated at 75° C. for 10 minutes and cooled down to RT before reading.
(§2) The % inhibition was determined by subtracting normalized relative fluorescent value to Cas9 without peptides (% activity) from 100% cleavage activity of CjeCas9, SauCas9, SpyCas9 by FRET assay. Data are the average ±SD of eleven replicate wells from three technical replicates at the indicated concentration of peptides.
(§3) FIGS. 12A, 12B, and 12C show graphs of measurements and fitted curves of concentration dependent inhibition of mutated peptides against Cas9 variants. The inhibition was measured as relative fluorescent value to Cas9 without peptides (% activity) of CjeCas9 (line with squares), SauCas9 (line with diamonds), SpyCas9 (line with triangles) by FRET assay with the indicated concentration of peptides and compared to original peptides (line with circles). Data are the average ±SD of eleven replicate wells from three technical replicates.

SpyCas9 [1] = target: T2, SpyCas9 (Streptococcus pyogenes serotype M1, UniProt Q99ZW2); type: biochemical, S. pyogenes
T2 sequence (Q99ZW2 whole entry): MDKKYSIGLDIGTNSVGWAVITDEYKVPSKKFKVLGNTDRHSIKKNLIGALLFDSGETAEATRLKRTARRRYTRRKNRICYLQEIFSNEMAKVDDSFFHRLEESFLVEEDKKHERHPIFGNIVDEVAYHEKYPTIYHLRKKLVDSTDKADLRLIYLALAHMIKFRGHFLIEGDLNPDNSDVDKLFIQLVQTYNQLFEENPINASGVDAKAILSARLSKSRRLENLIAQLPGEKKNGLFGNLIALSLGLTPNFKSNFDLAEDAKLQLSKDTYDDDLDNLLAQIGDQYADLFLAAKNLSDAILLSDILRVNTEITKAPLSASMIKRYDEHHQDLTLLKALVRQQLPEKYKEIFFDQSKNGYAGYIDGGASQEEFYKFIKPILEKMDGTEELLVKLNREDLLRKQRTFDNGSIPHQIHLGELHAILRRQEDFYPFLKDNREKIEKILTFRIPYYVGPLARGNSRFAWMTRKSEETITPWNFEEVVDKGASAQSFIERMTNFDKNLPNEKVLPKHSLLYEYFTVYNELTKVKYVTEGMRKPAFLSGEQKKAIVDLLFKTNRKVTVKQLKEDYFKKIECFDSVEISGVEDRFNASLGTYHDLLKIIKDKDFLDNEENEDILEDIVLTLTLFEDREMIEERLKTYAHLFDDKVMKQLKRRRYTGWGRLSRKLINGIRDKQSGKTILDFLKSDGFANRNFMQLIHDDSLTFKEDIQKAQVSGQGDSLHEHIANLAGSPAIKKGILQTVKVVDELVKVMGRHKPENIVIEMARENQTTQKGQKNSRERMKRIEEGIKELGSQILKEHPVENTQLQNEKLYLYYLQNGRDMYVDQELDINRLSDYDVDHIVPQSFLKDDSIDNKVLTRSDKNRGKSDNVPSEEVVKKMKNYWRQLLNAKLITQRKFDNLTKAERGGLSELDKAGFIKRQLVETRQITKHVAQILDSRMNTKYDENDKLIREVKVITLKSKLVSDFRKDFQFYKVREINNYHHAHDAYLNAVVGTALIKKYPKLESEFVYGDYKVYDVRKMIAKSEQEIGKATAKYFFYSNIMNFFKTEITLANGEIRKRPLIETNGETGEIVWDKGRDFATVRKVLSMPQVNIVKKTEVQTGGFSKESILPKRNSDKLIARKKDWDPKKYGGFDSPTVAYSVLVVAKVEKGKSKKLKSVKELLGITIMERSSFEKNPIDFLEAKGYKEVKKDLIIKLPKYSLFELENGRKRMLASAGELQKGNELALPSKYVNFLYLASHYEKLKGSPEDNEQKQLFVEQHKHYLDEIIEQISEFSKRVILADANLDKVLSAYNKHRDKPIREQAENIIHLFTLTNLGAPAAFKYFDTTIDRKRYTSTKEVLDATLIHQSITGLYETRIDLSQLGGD
Description: To determine whether synthetic peptides would inhibit Cas9 cleavage activity, 200 peptide sequences were selected for chemical synthesis based on the following criteria: (1) peptides enriched after independent panning on RNP immobilized on both the Monomeric Avidin and NeutrAvidin columns, (2) Higher Boman index (>2.3), the computed potential protein-protein interaction for a given amino-acids sequence (3) a predicted instability index below 50. Theses peptides were screened at 200 μM for inhibition of Cas9 cleavage activity using the recently developed HT FRET-based assay using a dual-quencher substrate with low background and high sensitivity. See Seamon K J, Light Y K, Saada E A, Schoeniger J S, Harmon B. 2018. Versatile High-Throughput Fluorescence Assay for Monitoring Cas9 Activity. Analytical Chemistry 90:6913-6921. This assay specifically measures DNA substrate cleavage, and is able to differentiate between cleavage of a single strand of DNA and cleavage of both DNA strands.
Reactions (10 μL tubes) were set up in Cas9 reaction buffer (20 mM Tris-HCl, pH 7.5, 100 mM NaCl, 5 mM MgCl2, 0.1 mM EDTA) containing 50 nM annealed DNA substrate, 1.5 μM sgRNA, and 500 nM Cas9 in the wells of a black low volume 384-well plate. The reactions were incubated for 1 hour at ambient temperature; then, 10 μL of 8 M Gdn-HCl was added to quench the reaction before the plates were covered with an aluminum seal and incubated at 80° C. for 10 minutes. The fluorescence was read in a Tecan Infinite M1000 or SPARK plate spectrofluorometer (Tecan).
The peptides were diluted 2-fold from 200 to 12.5 μM and incubated for 1 hour with 500 nM SpyCas9, gRNA prior to addition of 50 nM FRET DNA substrate for 1 hour. […] Data are the average ±SD of three replicate wells.
as §1, §2, §3

SpyCas9 [2] = target: T2, SpyCas9; test: Beacon DNA binding assay (Cas9 RNP binding to DNA substrate); parameters: species or system S. pyogenes
Description: To determine the mechanism of action of these peptide inhibitors, a binding assay was performed to determine if inhibitors are blocking Cas9 RNP binding to the DNA substrate. The beacon DNA binding assay was adapted and performed as described in Mekler V, Minakhin L, Semenova E, Kuznedelov K, Severinov K. 2016. Kinetics of the CRISPR-Cas9 effector complex assembly and the role of 3′-terminal segment of guide RNA. Nucleic Acids Res 44:2837-45. DNA probes were prepared from unmodified and chromophore-labeled DNA oligonucleotides synthesized by Integrated DNA Technologies. Equimolar amounts of synthetic complementary strands were mixed in a buffer containing 40 mM Tris, pH 7.9, 100 mM NaCl; heated for 2 min at 90° C. and slowly cooled to 20° C. The PAM-distal ends of the beacon target and non-target strands were labeled with fluorescein and Iowa Black® FQ, respectively. Both beacons mimic native target DNA and bind Cas9/sgRNA. The fluorescent signal is increased when Cas9 binds the DNA substrate and a helix forms with the target substrate strand and gRNA resulting in dissociation of oligo 3, leading to increase in fluorescent signal.
Data are the average ±SD of three replicate wells.

In the case of VYDFYRMLSHFFLKGPSR [Peptide 91], the “activity of SauCas9 (% activity, FRET)” value (SauCas9; peptide 100 μM) is reported as “significantly reduced activity”, the “activity of SauCas9 (% activity, FRET)” value (SauCas9; peptide 200 μM) is reported as “significantly reduced activity; also recorded: reduced SauCas9 activity” and the “activity of SpyCas9 (% activity, FRET)” value (SpyCas9 [1]; peptide 100 μM) is reported as “significantly reduced activity”. The “activity of SpyCas9 (% activity, FRET)” value (SpyCas9 [1]; peptide 200 μM) was “significantly reduced activity”, the “mechanism subset: blocks Cas9 RNP binding to target DNA or other mechanism” value (SpyCas9 [2]) was “block Cas9 RNP binding to the target DNA” and the “binding of SpyCas9 RNP to DNA substrate (beacon fluorescence)” value (SpyCas9 [2]; peptide 40 μM, SpyCas9 500 nM, DNA substrate 50 nM) was “unaltered; also recorded: did not reduce substrate binding”.

— US11999805B1, “Peptide inhibitors of CRISPR-Cas9” (priority 2020, dated 2024)
